In patent US20180244777A1 (NUMAB THERAPEUTICS, published 2018):
Like-named read-outs stand apart in the source and are kept apart here. Each block holds one binder with its values, some of them ahead of it.

Experiments:
[1] = target: T1, linear 15mer peptides derived from human CD3ε residues 5-20 (Set 3) (human); test: peptide array ELISA, Set 3
T1 construct: also called peptides spanning residues 5-20
T1 peptide: EEMGGITQTPYKVSIS
Protocol: (§1) The binding of the antibodies to each of the synthesized peptides was tested by ELISA. The peptide arrays were incubated with primary antibody solution (overnight at 4° C.). After washing, the peptide arrays were incubated with a 1/1000 dilution of an antibody peroxidase conjugate (SBA, cat.nr.2010-05) for one hour at 25° C. After washing, the peroxidase substrate 2,2′-azino-di-3-ethylbenzthiazoline sulfonate (ABTS) and 2 μl/ml of 3% H₂O₂ were added. After one hour, the color development was measured. The color development was quantified with a charge coupled device (CCD)—camera and an image processing system.

[2] = target: T2, cynomolgus monkey heterodimeric single-chain CD3εγ extracellular domain (cynomolgus monkey, UniProt Q95LI5 22-117; Q95LI7 23-113); test: SPR, rabbit IgG captured, cyno single-chain CD3εγ ECD injected
[3] = target: T3, human CD3ε expressed on the cell surface of T cells (Jurkat cells; human CD8+ T cells) (human, UniProt P07766 23-207); test: cell-based ELISA on Jurkat cells, CD3ε-deficient Jurkat subtracted
T3 construct: whole, on cells; also called native CD3ε embedded in the TCR complex on Jurkat cells
Protocol: (§2) Jurkat cells (clone E6-1), a human T cell line, were seeded at 300,000 cells/well in round bottom 96-well plates in 100 μl phosphate-buffered saline (PBS) containing 10% FBS. Five-fold serial dilutions of anti-CD3 rabbit monoclonal antibodies ranging from 90 nM to 0.0058 nM were added to the plates in 100 μl PBS containing 10% FBS. […] This secondary antibody was linked to the enzyme horseradish peroxidase (HRP). HRP activity was measured by addition of TMB substrate (3,3′,5,5′-tetramethylbenzidine, KPL, Cat. No. 53-00-00), which in a colorimetric reaction is processed by the HRP. The color intensity of the processed substrate is directly proportional to the amount of anti-CD3 antibody bound to Jurkat cells. To quantify color intensity, light absorbance (optical density) at the respective wave length was measured using a microtiter plate reader (Infinity reader M200 Pro, Tecan).
(§3) To correct for unspecific binding of the antibodies to unknown components presented on the cell surface of Jurkat cells, a CD3ε deficient derivative of the Jurkat T cell line (J.RT3-T3.5) was used. Binding of the monoclonal antibodies to this cell line was measured as described above for the Jurkat cells. For quantification of specific binding to Jurkat cells, the optical density for binding to the negative control was subtracted from the optical density for binding to Jurkat cells. Data were analyzed using a four-parameter logistic curve fit using the Softmax Data Analysis Software (Molecular Devices), and the molar concentration of anti-CD3 antibody required to reach 50% binding (EC₅₀, mid-OD of the standard curve) was derived from dose response curves.

[4] = target: T3, human CD3ε expressed on the cell …; test: cell-based ELISA on Jurkat cells
Protocol: as §2, §3

[5] = target: T4, cynomolgus monkey CD3ε expressed on the surface of HSC-F T cells (cynomolgus monkey, UniProt Q95LI5 22-198); test: cell-based ELISA on cyno HSC-F T cells
T4 construct: whole, on cells; also called cyno HSC-F T cells

[6] = target: T5, human heterodimeric single-chain CD3εγ extracellular domain (human, UniProt P07766 23-126; P09693 23-116); test: SPR, rabbit IgG captured, human single-chain CD3εγ ECD injected
T5 construct: extracellular domain; Produced in-house; also called scCD3γε; human CD3ge
Protocol: (§4) Binding affinities of monoclonal rabbit anti-CD3 antibodies were measured by surface plasmon resonance (SPR) using a MASS-1 SPR instrument (Sierra Sensors). […] Rabbit monoclonal antibodies were captured by the immobilized anti-rabbit IgG antibody. Two-fold serial dilutions of human heterodimeric single-chain CD3εγ extracellular domain (produced in-house) ranging from 90 to 2.81 nM were injected into the flow cells for 3 min and dissociation of the protein from the IgG captured on the sensor chip was allowed to proceed for 5 min. After each injection cycle, surfaces were regenerated with two injections of 10 mM glycine-HCl. The apparent dissociation (kd) and association (ka) rate constants and the apparent dissociation equilibrium constant (KD) were calculated with the MASS-1 analysis software (Analyzer, Sierra Sensors) using one-to-one Langmuir binding model.

[7] = target: T6, linear 15mer peptides derived from cynomolgus CD3ε residues 5-20 (Set 4) (cynomolgus); test: peptide array ELISA, Set 4
T6 construct: also called peptides spanning residues 5-20
T6 peptide: EEMGSITQTPYQVSIS
Protocol: as §1

[8] = target: T5, human heterodimeric single-chain CD3εγ …; test: SPR, rabbit IgG captured, human single-chain CD3εγ ECD injected; remark: listed apart in the source
Protocol: as §4

[9] = target: T3, human CD3ε expressed on the cell …; test: cell-based or functional assay
[10] = target: T2, cynomolgus monkey heterodimeric …; test: SPR; ratio of the KDs for cyno and human single-chain CD3εγ
[11] = target: T2, cynomolgus monkey heterodimeric …; test: SPR, rabbit IgG captured, cyno single-chain CD3εγ ECD injected; remark: listed apart in the source
[12] = target: T7, linear 15mer peptide derived from human CD3ε residues 2-16 (wild type of the substitution library, Set 1) (human); test: 15mer peptide array ELISA
T7 construct: Probed as a saturation mutagenesis library on a peptide array
T7 peptide: DGNEEMGGITQTPYK

[13] = target: T8, linear 15mer peptide derived from cynomolgus CD3ε residues 2-16 (wild type of the substitution library, Set 2) (cynomolgus); test: 15mer peptide array ELISA
T8 construct: Probed as a saturation mutagenesis library on a peptide array
T8 peptide: DGNEEMGSITQTPYQ

mouse CD3ε = mouse CD3ε (mouse, UniProt P22646 22-108, limits assumed); test: SPR
mouse CD3ε, sequence (P22646 22-108 limits assumed): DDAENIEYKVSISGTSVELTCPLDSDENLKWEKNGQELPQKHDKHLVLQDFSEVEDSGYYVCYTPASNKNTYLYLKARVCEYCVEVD

T2 sequence (Q95LI7 other isoform, or with tags, fused parts or gaps): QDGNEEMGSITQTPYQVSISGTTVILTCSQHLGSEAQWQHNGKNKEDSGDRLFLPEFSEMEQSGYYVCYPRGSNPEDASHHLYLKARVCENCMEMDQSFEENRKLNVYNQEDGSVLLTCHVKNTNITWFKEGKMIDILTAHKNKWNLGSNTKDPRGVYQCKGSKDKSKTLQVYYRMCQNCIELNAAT
T4 sequence (Q95LI5 22-198): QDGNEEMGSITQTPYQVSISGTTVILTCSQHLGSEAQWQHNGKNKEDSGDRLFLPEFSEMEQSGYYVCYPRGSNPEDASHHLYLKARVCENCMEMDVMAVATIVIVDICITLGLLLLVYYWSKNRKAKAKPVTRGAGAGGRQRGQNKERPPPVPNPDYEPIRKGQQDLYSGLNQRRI

binding result [1]: no binding
Kd [2]: 3.86 nM
EC50 [3]: 0.71 nM
EC50 [4]: 0.71 nM
EC50 [5]: 3.82 nM
Kd [6]: 0.304 nM
koff [6]: 0.000264 s⁻¹
kon [6]: 869000 M⁻¹ s⁻¹
binding result [7]: no binding
Kd [8]: 0.304 nM
Fold increase in CD69 expression [MFI normalized to neg. ctrl.], 1.25 µg/ml anti-CD3 IgG [9]: 3.3 fold
Fold increase in CD69 expression [MFI normalized to neg. ctrl.], 5 µg/ml anti-CD3 IgG [9]: 4.6 fold
Fold increase in CD69 expression [MFI normalized to neg. ctrl.], 20 µg/ml anti-CD3 IgG [9]: 7.4 fold
KD (human)/KD (cyno) [10]: 13
Kd [11]: 3.86 nM
koff [11]: 0.00258 s⁻¹
kon [11]: 668000 M⁻¹ s⁻¹
binding result [12]: binds
binding result [13]: binds
B1: clone-02 (antibody, V domains shown)
VH: QSLEESGGRLVTPGTPLTLTCTVSGFPLSAYAMIWVRQAPGKGLEWIGMIIRSGTVYYANWAKGRFTISKTSTTVDLKITSPTTEDTATYFCARRHYNADGYPIGIGDLWGPGTLVTVSS
VL: AQVLTQTPSSVSAVVGGTVTISCQSSESVYSNNRLSWFQQKPGQPPKLLIYSASTLASGVPSRFKGSGSGTQFTLTITDLECDDAATYFCQGEFSCSSVDCFSFGGGTEVVVKG
notes: Recombinant rabbit IgG; also called Clone 2

Kd (mouse CD3ε): 11.4 nM
koff (mouse CD3ε): 0.00266 s⁻¹
kon (mouse CD3ε): 233000 M⁻¹ s⁻¹
B2: PRO400 (Fab, V domains shown)
VH: EVQLVESGGGLVQPGKSLKLSCEASGFTFSGYGMHWVRQAPGRGLESVAYITSSSINIKYADAVKGRFTVSRDNAKNLLFLQMNILKSEDTAMYYCARFDWDKNYWGQGTMVTVSS
VL: DIQMTQSPSSLPASLGDRVTINCQASQDISNYLNWYQQKPGKAPKLLIYYTNKLADGVPSRFSGSGSGRDSSFTISSLESEDIGSYYCQQYYNYPWTFGPGTKLEIKR
notes: Chimeric Fab: hamster 2C11 variable domains with human CL and CH1; also called anti-mCD3 Fab; 2C11 Fab
